Source: US20240425589A1, “CYTOTOXICITY-INDUCING THERAPEUTIC AGENT FOR USE IN TREATMENT OF CANCER” (CHUGAI SEIYAKU KABUSHIKI KAISHA, priority 2021, published 2024)

How the values were obtained:
SNG-M = SNG-M xenograft in huNOG mice, combination with carboplatin; type: in vivo; details: 30 days after transplantation; CS4135 0.5 mg/kg iv day 13, carboplatin 40 mg/kg ip days 13, 16, 20
Experimental: In this test, NOG (huNOG) mice (described in the aforementioned Example 13) transplanted with human uterus cancer cell line SNG-M and human CD34-positive cells were used. The SNG-M cell line was transplanted subcutaneously to the right flank of the mice, and the mice were divided into groups 13 days after transplantation. Individuals whose tumor volume reached 130 to 244 mm^3 were divided into groups. Vehicle 1 and CS4135 were administered into the mouse tail vein 13 days after transplantation. PBS containing 0.05% Tween-20 was used as Vehicle 1. Vehicle 2 and carboplatin (Bristol Myers Squibb Company) were administered intraperitoneally to the mice 13, 16, and 20 days after transplantation. Physiological saline was used as Vehicle 2.
Tumor volume was measured 13, 16, 20, 23, 26, and 30 days after transplantation, and the average tumor volume was indicated for each group.
The tumor volume was calculated by the following equation: […]
Tumor Growth Inhibition (TGI) was calculated by the following equation: […]

OV-90 = experiment: Mouse peritoneal dissemination model; type: in vivo, NOD/ShiJic-scid Jcl mice; details: 5 mg/kg iv
Experimental: To evaluate the effect of anti-CLDN6/Dual-Fab tri-specific antibody CS4135 (the same antibody as PPU4135 described in Table 9 of Example 6 described above) against peritoneal metastasis of ovary cancer, the drug efficacy was evaluated using a mouse peritoneal dissemination model. Human ovarian cancer cell line OV-90 (ATCC) was used as target cells. OV-90 cells were transplanted intraperitoneally to NOD/ShiJic-scid Jcl mice at 5×10^6 cells/500 μL/animal. Three days after transplantation, human T cells separated from human PBMC and expansively cultured using Dynabeads Human T-Activator CD3/CD28 (Gibco) were administered intravenously at 3×10^7 cells/400 μL. Furthermore, the vehicle (PBS containing 0.05% Tween-20) or a CS4135 antibody solution at 5 mg/kg was administered intravenously.
After tumor transplantation, the mice were observed every 2 to 7 days, and the conditions of the mice were assessed according to the humane endpoint guideline.

[1] = tested on: GloResponse NFAT-luc2 Jurkat cells with OVCAR3 and H1435 cells; experiment: NFAT-luc2 Jurkat luciferase assay with chemotherapeutic-treated cancer cells; type: cell-based, human; details: cells treated with cisplatin or carboplatin for 5 days vs untreated
Experimental: Next, measurement was carried out based on a luciferase assay system using GloResponse NFAT-luc2 Jurkat cells (Promega, J1601) to see if T-cell-activation ability of CS4135 antibody via CD3 binding will change depending on the presence or absence of treatment by a chemotherapeutic agent.
The assay was performed as follows. First, as described above, OVCAR3 and H1435 cells treated with a chemotherapeutic agent for 5 days were detached from a culture flask and plated at 25 μL/well (2×10^4 cells) onto a white flat-bottom 96-well plate (Coster #3917). Next, 1×10^5 Jurkat/NFAT-RE reporter cell line together with the CS4135 antibody at a concentration selected from 0.003, 0.03, 0.3, 3, or 30 nM were added at 25 μL/well. After culturing overnight at 37° C., Bio-Glo reagent (Promega #G7941) was added at 75 μL/well followed by further incubation at room temperature for 10 minutes. Then, luminescence arose from activated Jurkat cells was measured using an EnSpire (PerkinElmer Japan) device. The luminescence magnification of each well was calculated by comparing the wells with the antibody to the wells without the antibody.

recombinant cyno CD137 = recombinant cyno CD137 (Macaca fascicularis, UniProt A9YYE7); experiment: Biacore 8K SPR affinity to cyno CD137; type: binding, cynomolgus; details: cyno CD137, 37 degree C, pH 7.4
Experimental: (§1) The binding affinity of the anti-CLDN6/Dual-Fab tri-specific antibody against recombinant human and cyno CD3eg (gamma and epsilon subunits of CD3) at pH 7.4 was determined at 25 degree C. using Biacore 8K instrument (GE Healthcare). The binding affinity of the anti-CLDN6/Dual-Fab tri-specific antibody against recombinant human and cyno CD137 at pH 7.4 was determined at 37 degree C. using Biacore 8K instrument (GE Healthcare). Anti-human Fc (GE Healthcare) antibody was immobilized onto all flow cells of a CM4 sensor chip using amine coupling kit (GE Healthcare). Tested antibody and analytes were prepared in ACES pH 7.4 containing 20 mM ACES, 150 mM NaCl, 0.05% Tween 20, 0.005% NaN3. Anti-CLDN6/Dual-Fab tri-specific antibody was captured onto the sensor surface by anti-human Fc. Antibody capture levels were aimed at 300 resonance unit (RU). Recombinant CD3eg and CD137 were injected at both 500 and 2000 nM, followed by dissociation. Sensor surface was regenerated each cycle with 3M MgCl2. […] Binding affinities were determined by processing and fitting the data to 1:1 binding model using Biacore Insight Evaluation software (GE Healthcare).

recombinant human CD3eg = recombinant human CD3eg (Homo sapiens, UniProt P07766+P09693); experiment: Biacore 8K SPR affinity to human CD3eg; type: binding; details: 25 degree C, pH 7.4
Experimental: as §1

recombinant human CD137 = target: T1, recombinant human CD137 (Homo sapiens, UniProt Q07011); experiment: Biacore 8K SPR affinity to human CD137; type: binding; details: human CD137, 37 degree C, pH 7.4
T1 construct: made in house; host or cells: FreeStyle293F
Experimental: as §1

Sequence of recombinant human CD3eg (P07766+P09693 fused): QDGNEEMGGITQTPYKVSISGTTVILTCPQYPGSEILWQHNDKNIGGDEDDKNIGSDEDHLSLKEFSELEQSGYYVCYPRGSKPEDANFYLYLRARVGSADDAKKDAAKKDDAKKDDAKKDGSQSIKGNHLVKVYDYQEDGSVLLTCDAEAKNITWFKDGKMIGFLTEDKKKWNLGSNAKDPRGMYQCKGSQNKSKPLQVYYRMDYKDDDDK
T1 sequence (Q07011 with tags, fused parts or gaps): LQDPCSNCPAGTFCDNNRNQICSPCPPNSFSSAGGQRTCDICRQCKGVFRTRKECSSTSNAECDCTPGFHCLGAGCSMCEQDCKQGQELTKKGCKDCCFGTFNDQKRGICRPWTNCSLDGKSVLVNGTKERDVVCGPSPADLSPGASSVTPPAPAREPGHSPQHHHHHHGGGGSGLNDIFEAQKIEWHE
Sequence of recombinant cyno CD137 (A9YYE7 1-254): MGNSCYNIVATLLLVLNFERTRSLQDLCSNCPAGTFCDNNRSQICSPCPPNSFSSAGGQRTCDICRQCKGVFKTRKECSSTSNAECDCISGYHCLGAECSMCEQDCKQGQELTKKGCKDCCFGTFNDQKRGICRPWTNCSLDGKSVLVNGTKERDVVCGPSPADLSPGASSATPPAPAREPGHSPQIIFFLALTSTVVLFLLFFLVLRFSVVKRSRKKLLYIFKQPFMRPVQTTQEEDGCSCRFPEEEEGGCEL

B1: PPU4135: anti-CLDN6/Dual-Fab tri-specific antibody, chains SEQ ID NOs 42, 51, 56, 69; CS4135 same antibody (protein)
chain 1: QVQLVESGGGVVQPGGSLRLSCAASGFTFSSYTMSWVRQAPGQGLEWMGTISSGGGRTYYPDSVKGRFTISRDNSKNTLYLQMNSLRDEDTAVYYCARGDYRYDGFAYWGEGTLVTVSSASTKGPSVFPLAPSSKSTSGGTAALGCLVEDYFPEPVTVSWNSGALTSGVHTFPAVLESSGLYSLSSVVTVPSSSLGTQTYICNVNHKPSNTKVDKRVEPKSCDKTHTCPPCPAPEAAGGPSVFLFPPKPKDTLMISRTPEVTCVVVDVSHEDPEVKFNWYVDGVEVHNAKTKPREEQYASTYRVVSVLTVLHQDWLNGKEYKCKVSNKALPAPIEKTISKAKGQPREPQVYTLPPSREEMTKNQVSLTCLVKGFYPSDIAVEWESNGQPENNYKTTPPVLDSDGSFFLYSKLTVDKSRWQQGNVFSCSVMHEALHNHYTQESLSLSP
chain 2: DIQMTQSPSSLSASVGDRVTITCRASYNIDSYLAWYQQKPGKAPELLIYYSTLLVDGVPDRFSGSRSGTDFTLTISSLQPEDFATYYCQHYYSIPYTFGQGTKVEIERTVAAPSVFIFPPSDEQLKSGTAKVVCLLNNFYPREAKVQWKVDNALQSGNSKESVTEQDSKDSTYSLSSTLTLSKADYEKHKVYACEVTHQGLSSPVTKSFNRGEC
chain 3: QVQLVESGGGLVQPGRSLRLSCAASGFKFSNVWFHWVRQAPGKGLEWVAQIKDYYNAYAAYYAPSVKGRFTISRDDSKNSIYLQMNSLKTEDTAVYYCHYVHYASASTLLPAEGVDAWGQGTTVTVSSASTKGPSVFPLAPSSKSTSGGTAALGCLVKDYFPEPVTVSWNSGALTSGVHTFPAVLKSSGLYSLSSVVTVPSSSLGTQTYICNVNHKPSNTKVDKRVEPKSCDKTHTCPPCPAPEAAGGPSVFLFPPKPKDTLMISRTPEVTCVVVDVSHEDPEVKFNWYVDGVEVHNAKTKPREEQYASTYRVVSVLTVLHQDWLNGKEYKCKVSNKALPAPIEKTISKAKGQPREPQVYTLPPSRKEMTKNQVSLTCLVKGFYPSDIAVEWESNGQPENNYKTTPPVLDSDGSFFLYSKLTVDKSRWQQGNVFSCSVMHEALHNHYTQKSLSLSP
chain 4: DIVMTQSPLSLPVTPGEPASISCQPSQEVVHMNRNTYLHWYQQKPGQAPRLLIYKVSNRFPGVPDRFSGSGSGTDFTLKISRVEAEDVGVYYCAQGTSHPFTFGQGTKLEIKRTVAAPSVFIFPPSDEQLKSGTAEVVCLLNNFYPREAKVQWKVDNALQSGNSEESVTEQDSKDSTYSLSSTLTLSKADYEKHKVYACEVTHQGLSSPVTKSFNRGEC
Tumor growth inhibition: TGI (SNG-M): 35% | 50% survival rate found (OV-90): 71 days after transplantation | mice showing aggravated conditions observed from (OV-90; vehicle from 48 days): 57 days after transplantation | survival rate (OV-90; 66 days after transplantation): 78% | survival rate (OV-90; 80 days after transplantation): 22% | T cell activation ability via CD3 [1]: enhanced | ka (recombinant cyno CD137): 8350 M⁻¹ s⁻¹ | kd (recombinant cyno CD137): 0.00146 s⁻¹ | ka (recombinant human CD3eg): 78000 M⁻¹ s⁻¹ | kd (recombinant human CD3eg): 0.0266 s⁻¹ | ka (recombinant human CD137): 12600 M⁻¹ s⁻¹ | kd (recombinant human CD137): 0.000591 s⁻¹
